Here are results for 1 molecule from doi:10.64898/2025.12.19.695307 (bioRxiv, 2025).

Experiment [1] concerns the target T1, SARS-CoV-2 KP.3 RBD (SARS-CoV-2 Omicron KP.3, strain, N354 glycosylation). Put plainly: cell-based or functional assay.
Another experiment concerns the target SARS-CoV-2 JN.1 RBD (SARS-CoV-2 Omicron JN.1, strain, N354 glycosylation). Put plainly: BLI. On the technique in general: Biolayer interferometry detects binding as a change in optical thickness at a sensor tip.
Experiment [2] addresses SARS-CoV-2 Omicron BQ.1.1 RBD (SARS-CoV-2 Omicron BQ.1.1, R346T | L452R). Put plainly: BLI.
Experiment [3] concerns the target T1, SARS-CoV-2 KP.3 RBD. Put plainly: BLI.
Another experiment deals with SARS-CoV-2 BA.2.86 RBD (SARS-CoV-2 Omicron BA.2.86, strain, N354 glycosylation). Put plainly: BLI.
In experiment [4] the target is SARS-CoV-2 Delta (B.1.617.2) RBD (SARS-CoV-2 Delta (B.1.617.2), L452R). Put plainly: BLI.
The target in another experiment is SARS-CoV-2 JD.1.1 RBD (SARS-CoV-2 Omicron JD.1.1, strain). Put plainly: BLI.
For experiment [5], the target named is SARS-CoV-2 Omicron BA.4/5 RBD (SARS-CoV-2 Omicron BA.4/5, L452R). Put plainly: BLI.
The target of experiment [6] is SARS-CoV-2 Omicron XBB.1.5 RBD (SARS-CoV-2 Omicron XBB.1.5, F490S). Put plainly: BLI.
The target of experiment [7] is SARS-CoV-2 Kappa (B.1.617.1) RBD (SARS-CoV-2 Kappa (B.1.617.1), L452R). Description: BLI.
Experiment [8] has as its target SARS-CoV-2 Omicron EG.5.1 RBD (SARS-CoV-2 Omicron EG.5.1, F490S). Description: BLI.
The next experiment has as its target SARS-CoV-2 HK.3 RBD (SARS-CoV-2 Omicron HK.3, strain). Put plainly: BLI.

B1: ZL525 (antibody, V domains shown)
V domain 1: QVQLVQSGAEVKKPGSSMKVSCQASGGTFSSHPISWIRQAPGQGLEWMGRIIPIAGMTDYGQKFQGRITITADTSTSTSYVELRGLRSQDTAFYYCAKDVGYSDYGSAYYFHTWGQGTLITVSS
V domain 2: QSVLTQPPSVSGAPGQRVTISCTGSNSNIGAGYDVHWYQQLPGTAPKLLIYRNNKRPSGVPDRFSGSKSDTSASLAITGLQAEDEAHYYCQSFDSSLGGSLFGGGTKLAVL
As a reminder, the Kd is a measure of binding affinity in units of concentration. The low end stands for higher affinity, the high end for lower affinity. As for B1, the “IC50 of neutralisation of authentic KP.3 virus (focus reduction, Vero E6)” value in the experiment with SARS-CoV-2 KP.3 RBD [1] was 0.107 µg/mL. Moreover, the dissociation constant (Kd) with SARS-CoV-2 JN.1 RBD is below 1.11 nM; in experiment [2], below 0.71 nM; with SARS-CoV-2 KP.3 RBD [3], below 1.11 nM; with SARS-CoV-2 BA.2.86 RBD, below 1.11 nM; in [4], below 0.71 nM; with SARS-CoV-2 JD.1.1 RBD, below 1.11 nM. For the same molecule, the Kd in experiment [5] was below 0.71 nM; in experiment [6], below 0.71 nM; in [7], below 0.71 nM; in [8] it was below 0.71 nM; in the experiment with SARS-CoV-2 HK.3 RBD, below 1.11 nM.
